Laboratory results from the supplement of paper PMC11208486.

Assay: specific initial activity, cyclohex-2-enone reduction (U mg-1); higher = more active
Procedure: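 Specific initial activity of purified ene reductases with 10 mM cyclohex-2-enone and 0.2 mM NAD(P)H in 50 mM sodium phosphate pH 7.4 with 0-45% (v/v) ethanol or methanol, at set reaction temperatures of 25-45 °C. NAD(P)H depletion was followed at 340 nm for 480 s, in triplicate.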

MNPKYKPLFEPFTFKSGVTINNRIAVAPMTHYASNEDGTISEAELDYIIPRSKEMGMVITACANVTPDGKAFPGQPAIHDDSNIPGLKKLAQAIQAQGAKAVVQIHHGGIECPSELVPQQDVVGPSDVFDNGKQIARALTEEEVENIVKAFGEATRRAIEAGFDGVEIHGANGYLIQQFYSPKTNQRTDRWGGSDEKRLAFPLAIVDEVKKAASEHAKGAFLVGYRLSPEEPETPGLTMTETYTLVDALGDKELDYLHISLMDVNSKARRGADPTRTRMDLLNERVGNKVPLIAVGSIHSADDALAVIENGIPLVAMGREILVDPNWTVKVKEGREKQIETVIKGTDKEKYHLPEPLWQAIVNTQGWVPYKD
specific initial activity
Details	co-solvent: ethanol	co-solvent: methanol
co-solvent concentration (% v/v): 0, reaction temperature 25 °C	0.8	0.66
co-solvent concentration (% v/v): 0, reaction temperature 30 °C	0.56	0.51
co-solvent concentration (% v/v): 0, reaction temperature 35 °C	0.24	0.25
co-solvent concentration (% v/v): 0, reaction temperature 40 °C	0.15	0.12
co-solvent concentration (% v/v): 5, reaction temperature 25 °C	0.77	0.61
co-solvent concentration (% v/v): 5, reaction temperature 30 °C	0.66	0.42
co-solvent concentration (% v/v): 5, reaction temperature 35 °C	0.27	0.2
co-solvent concentration (% v/v): 5, reaction temperature 40 °C	0.05	0.09
co-solvent concentration (% v/v): 10, reaction temperature 25 °C	0.95	0.69
co-solvent concentration (% v/v): 10, reaction temperature 30 °C	0.67	0.41
co-solvent concentration (% v/v): 10, reaction temperature 35 °C	0.28	0.14
co-solvent concentration (% v/v): 10, reaction temperature 40 °C	0.04	0.04
co-solvent concentration (% v/v): 15, reaction temperature 25 °C	0.96	0.65
co-solvent concentration (% v/v): 15, reaction temperature 30 °C	0.85	0.43
co-solvent concentration (% v/v): 15, reaction temperature 35 °C	0.21	0.1
co-solvent concentration (% v/v): 15, reaction temperature 40 °C	0.03	0.02
co-solvent concentration (% v/v): 20, reaction temperature 25 °C	0.99	0.66
co-solvent concentration (% v/v): 20, reaction temperature 30 °C	0.75	0.4
co-solvent concentration (% v/v): 20, reaction temperature 35 °C	0.17	0.1
co-solvent concentration (% v/v): 20, reaction temperature 40 °C	0.03	0.03
co-solvent concentration (% v/v): 25, reaction temperature 25 °C	0.88	0.6
co-solvent concentration (% v/v): 25, reaction temperature 30 °C	0.63	0.4
co-solvent concentration (% v/v): 25, reaction temperature 35 °C	0.08	0.05
co-solvent concentration (% v/v): 25, reaction temperature 40 °C	0.03	0.02
co-solvent concentration (% v/v): 30, reaction temperature 25 °C	0.63	0.55
co-solvent concentration (% v/v): 30, reaction temperature 30 °C	0.44	0.28
co-solvent concentration (% v/v): 30, reaction temperature 35 °C	0.04	0.04
co-solvent concentration (% v/v): 30, reaction temperature 40 °C	0.04	0.03
co-solvent concentration (% v/v): 35, reaction temperature 25 °C	0.45	0.44
co-solvent concentration (% v/v): 35, reaction temperature 30 °C	0.25	0.21
co-solvent concentration (% v/v): 35, reaction temperature 35 °C	0.02	0.02
co-solvent concentration (% v/v): 35, reaction temperature 40 °C	0.04	0.02
co-solvent concentration (% v/v): 40, reaction temperature 25 °C	0.23	0.2
co-solvent concentration (% v/v): 40, reaction temperature 30 °C	0.1	0.11
co-solvent concentration (% v/v): 40, reaction temperature 35 °C	0.04	0.07
co-solvent concentration (% v/v): 40, reaction temperature 40 °C	0.02	0.03
co-solvent concentration (% v/v): 45, reaction temperature 25 °C	0.11	0.04
co-solvent concentration (% v/v): 45, reaction temperature 30 °C	0.06	0.04
co-solvent concentration (% v/v): 45, reaction temperature 35 °C	0	0.04
co-solvent concentration (% v/v): 45, reaction temperature 40 °C	0.04	0.05

MSFVKDFKPQALGDTNLFKPIKIGNNELLHRAVIPPLTRMRALHPGNIPNRDWAVEYYTQRAQRPGTMIITEGAFISPQAGGYDNAPGVWSEEQMVEWTKIFNAIHEKKSFVWVQLWVLGWAAFPDNLARDGLRYDSASDNVFMDAEQEAKAKKANNPQHSLTKDEIKQYIKEYVQAAKNSIAAGADGVEIHSANGYLLNQFLDPHSNTRTDEYGGSIENRARFTLEVVDALVEAIGHEKVGLRLSPYGVFNSMSGGAETGIVAQYAYVAGELEKRAKAGKRLAFVHLVEPRVTNPFLTEGEGEYEGGSNDFVYSIWKGPVIRAGNFALHPEVVREEVKDKRTLIGYGRFFISNPDLVDRLEKGLPLNKYDRDTFYQMSAHGYIDYPTYEEALKLGWDKK
specific initial activity
Details	co-solvent: ethanol	co-solvent: methanol
co-solvent concentration (% v/v): 0, reaction temperature 25 °C	0.2	0.24
co-solvent concentration (% v/v): 0, reaction temperature 30 °C	0.23	0.21
co-solvent concentration (% v/v): 0, reaction temperature 35 °C	0.36	0.37
co-solvent concentration (% v/v): 0, reaction temperature 40 °C	0.33	0.23
co-solvent concentration (% v/v): 0, reaction temperature 45 °C	0.1	0.07
co-solvent concentration (% v/v): 5, reaction temperature 25 °C	0.28	0.21
co-solvent concentration (% v/v): 5, reaction temperature 30 °C	0.32	0.29
co-solvent concentration (% v/v): 5, reaction temperature 35 °C	0.47	0.46
co-solvent concentration (% v/v): 5, reaction temperature 40 °C	0.34	0.25
co-solvent concentration (% v/v): 5, reaction temperature 45 °C	0.17	0.12
co-solvent concentration (% v/v): 10, reaction temperature 25 °C	0.27	0.3
co-solvent concentration (% v/v): 10, reaction temperature 30 °C	0.37	0.36
co-solvent concentration (% v/v): 10, reaction temperature 35 °C	0.52	0.52
co-solvent concentration (% v/v): 10, reaction temperature 40 °C	0.21	0.17
co-solvent concentration (% v/v): 10, reaction temperature 45 °C	0.12	0.08
co-solvent concentration (% v/v): 15, reaction temperature 25 °C	0.32	0.33
co-solvent concentration (% v/v): 15, reaction temperature 30 °C	0.36	0.4
co-solvent concentration (% v/v): 15, reaction temperature 35 °C	0.52	0.55
co-solvent concentration (% v/v): 15, reaction temperature 40 °C	0.09	0.09
co-solvent concentration (% v/v): 15, reaction temperature 45 °C	0.05	0.04
co-solvent concentration (% v/v): 20, reaction temperature 25 °C	0.36	0.37
co-solvent concentration (% v/v): 20, reaction temperature 30 °C	0.35	0.43
co-solvent concentration (% v/v): 20, reaction temperature 35 °C	0.32	0.4
co-solvent concentration (% v/v): 20, reaction temperature 40 °C	0.02	0.02
co-solvent concentration (% v/v): 20, reaction temperature 45 °C	0.02	0.01
co-solvent concentration (% v/v): 25, reaction temperature 25 °C	0.27	0.31
co-solvent concentration (% v/v): 25, reaction temperature 30 °C	0.21	0.3
co-solvent concentration (% v/v): 25, reaction temperature 35 °C	0.03	0.06
co-solvent concentration (% v/v): 25, reaction temperature 40 °C	0.01	0.02
co-solvent concentration (% v/v): 25, reaction temperature 45 °C	0.01	0.02
co-solvent concentration (% v/v): 30, reaction temperature 25 °C	0.15	0.19
co-solvent concentration (% v/v): 30, reaction temperature 30 °C	0.15	0.14
co-solvent concentration (% v/v): 30, reaction temperature 35 °C	0.02	0.01
co-solvent concentration (% v/v): 30, reaction temperature 40 °C	0.01	0.01
co-solvent concentration (% v/v): 30, reaction temperature 45 °C	0.02	0
co-solvent concentration (% v/v): 35, reaction temperature 25 °C	0.07	0.03
co-solvent concentration (% v/v): 35, reaction temperature 30 °C	0.03	0.04
co-solvent concentration (% v/v): 35, reaction temperature 35 °C	0.01	0.01
co-solvent concentration (% v/v): 35, reaction temperature 40 °C	0.01	0
co-solvent concentration (% v/v): 35, reaction temperature 45 °C	0.03	0
co-solvent concentration (% v/v): 40, reaction temperature 25 °C	0.02	0.02
co-solvent concentration (% v/v): 40, reaction temperature 30 °C	0.02	0.03
co-solvent concentration (% v/v): 40, reaction temperature 35 °C	0.01	0
co-solvent concentration (% v/v): 40, reaction temperature 40 °C	0.01	0.01
co-solvent concentration (% v/v): 40, reaction temperature 45 °C	0.01	0.01
co-solvent concentration (% v/v): 45, reaction temperature 25 °C	0.01	0.01
co-solvent concentration (% v/v): 45, reaction temperature 30 °C	0.04	0.03
co-solvent concentration (% v/v): 45, reaction temperature 35 °C	0.02	0.01
co-solvent concentration (% v/v): 45, reaction temperature 40 °C	0.01	0.01
co-solvent concentration (% v/v): 45, reaction temperature 45 °C	0.02	0
